In the Human Domainome abundance scans (Beltran et al. 2025) one finds abundance fitness data, which are given here for 91 substances.

± gives the uncertainty stated by the source.

A short description of this data set: abundance fitness (aPCA) (normalised: wild type 0, dead -1); higher = more abundant; growth selection in yeast, the domain comes from the species named. To be noted: Homo sapiens.
Turning to “DnaJ homolog subfamily B member 1 P33R, P25685”, the abundance fitness is -0.06 ± 0.078.

For “DnaJ homolog subfamily B member 1 P33S, P25685”, the abundance fitness was found to be 0.018 ± 0.083.

With “DnaJ homolog subfamily B member 1 P33V, P25685”, the abundance fitness is -0.078 ± 0.076.

Take “DnaJ homolog subfamily B member 1 P33W, P25685”: the abundance fitness was -0.455 ± 0.096. “DnaJ homolog subfamily B member 1 P33Y, P25685” yielded an abundance fitness of -0.245 ± 0.11. To “DnaJ homolog subfamily B member 1 P39A, P25685” belongs -0.037 ± 0.074.

The substance “DnaJ homolog subfamily B member 1 P39C, P25685” displayed an abundance fitness of -0.016 ± 0.15. “DnaJ homolog subfamily B member 1 P39D, P25685”: the abundance fitness is -0.339 ± 0.27. In the case of “DnaJ homolog subfamily B member 1 P39E, P25685” it was 0.064 ± 0.097. In the case of “DnaJ homolog subfamily B member 1 P39F, P25685” it was -0.041 ± 0.2; in that of “DnaJ homolog subfamily B member 1 P39G, P25685”, -0.287 ± 0.16; in that of “DnaJ homolog subfamily B member 1 P39H, P25685”, 0.054 ± 0.28.

“DnaJ homolog subfamily B member 1 P39I, P25685” returned an abundance fitness of -0.038 ± 0.15. As to “DnaJ homolog subfamily B member 1 P39K, P25685”, the abundance fitness stood at 0.027 ± 0.14. With “DnaJ homolog subfamily B member 1 P39N, P25685”, the abundance fitness was 0.035 ± 0.12. To “DnaJ homolog subfamily B member 1 P39R, P25685” belongs 0.041 ± 0.1; to “DnaJ homolog subfamily B member 1 P39S, P25685”, -0.078 ± 0.069; to “DnaJ homolog subfamily B member 1 P39T, P25685”, 0.133 ± 0.13. Consider “DnaJ homolog subfamily B member 1 P39V, P25685”, for which the abundance fitness is 0.001 ± 0.12. As to “DnaJ homolog subfamily B member 1 P39W, P25685”, the abundance fitness turned out to be 0.026 ± 0.12. Take “DnaJ homolog subfamily B member 1 P39Y, P25685”: the abundance fitness is -0.222 ± 0.14.

Substance “DnaJ homolog subfamily B member 1 P58A, P25685” came in with an abundance fitness of -0.081 ± 0.09. In the case of “DnaJ homolog subfamily B member 1 P58C, P25685” it was -0.256 ± 0.22; in that of “DnaJ homolog subfamily B member 1 P58D, P25685”, -0.332 ± 0.14.

“DnaJ homolog subfamily B member 1 P58E, P25685” displayed an abundance fitness of -0.149 ± 0.086. “DnaJ homolog subfamily B member 1 P58F, P25685” returned an abundance fitness of -0.407 ± 0.25. “DnaJ homolog subfamily B member 1 P58G, P25685” yielded an abundance fitness of -0.238 ± 0.079. Substance “DnaJ homolog subfamily B member 1 P58H, P25685” displayed an abundance fitness of -0.192 ± 0.19. “DnaJ homolog subfamily B member 1 P58I, P25685” came in with an abundance fitness of -0.256 ± 0.16. “DnaJ homolog subfamily B member 1 P58K, P25685” came in with an abundance fitness of 0.021 ± 0.31.

“DnaJ homolog subfamily B member 1 P58L, P25685” displayed an abundance fitness of -0.163 ± 0.057. To “DnaJ homolog subfamily B member 1 P58N, P25685” belongs -0.306 ± 0.2. “DnaJ homolog subfamily B member 1 P58Q, P25685” had an abundance fitness of -0.18 ± 0.097. To “DnaJ homolog subfamily B member 1 P58R, P25685” belongs -0.11 ± 0.073; to “DnaJ homolog subfamily B member 1 P58S, P25685”, -0.112 ± 0.089.

For “DnaJ homolog subfamily B member 1 P58T, P25685”, the abundance fitness was -0.143 ± 0.14. To “DnaJ homolog subfamily B member 1 P58V, P25685” belongs -0.191 ± 0.094; to “DnaJ homolog subfamily B member 1 P58W, P25685”, -0.236 ± 0.085. To “DnaJ homolog subfamily B member 1 P58Y, P25685” belongs -0.229 ± 0.13; to “DnaJ homolog subfamily B member 1 Q7A, P25685”, -0.386 ± 0.12; to “DnaJ homolog subfamily B member 1 Q7C, P25685”, 0.031 ± 0.13. With “DnaJ homolog subfamily B member 1 Q7E, P25685”, the abundance fitness is -0.547 ± 0.13. To “DnaJ homolog subfamily B member 1 Q7F, P25685” belongs 0.066 ± 0.11; to “DnaJ homolog subfamily B member 1 Q7G, P25685”, -0.315 ± 0.21; to “DnaJ homolog subfamily B member 1 Q7H, P25685”, -0.246 ± 0.15.

On to “DnaJ homolog subfamily B member 1 Q7I, P25685”, for which the abundance fitness is -0.144 ± 0.17. In the case of “DnaJ homolog subfamily B member 1 Q7K, P25685” it was -0.014 ± 0.12; in that of “DnaJ homolog subfamily B member 1 Q7L, P25685”, -0.049 ± 0.057; in that of “DnaJ homolog subfamily B member 1 Q7N, P25685”, 0.019 ± 0.13.

For “DnaJ homolog subfamily B member 1 Q7P, P25685”, the abundance fitness was -0.567 ± 0.088. Turning to “DnaJ homolog subfamily B member 1 Q7R, P25685”, the abundance fitness is -0.185 ± 0.071.

In the case of “DnaJ homolog subfamily B member 1 Q7S, P25685”, the abundance fitness was -0.286 ± 0.081. In the case of “DnaJ homolog subfamily B member 1 Q7T, P25685” it was -0.008 ± 0.078; in that of “DnaJ homolog subfamily B member 1 Q7V, P25685”, -0.307 ± 0.087; in that of “DnaJ homolog subfamily B member 1 Q7W, P25685”, -0.207 ± 0.15. In turn, “DnaJ homolog subfamily B member 1 Q7Y, P25685” gave an abundance fitness of 0.022 ± 0.13.

“DnaJ homolog subfamily B member 1 Q27A, P25685” came in with an abundance fitness of -0.15 ± 0.11. To “DnaJ homolog subfamily B member 1 Q27C, P25685” belongs 0.012 ± 0.14.

Substance “DnaJ homolog subfamily B member 1 Q27D, P25685” displayed an abundance fitness of 0.003 ± 0.15. To “DnaJ homolog subfamily B member 1 Q27E, P25685” belongs -0.231 ± 0.36. To “DnaJ homolog subfamily B member 1 Q27F, P25685” belongs -0.115 ± 0.13; to “DnaJ homolog subfamily B member 1 Q27G, P25685”, -0.277 ± 0.093. Take “DnaJ homolog subfamily B member 1 Q27H, P25685”: the abundance fitness was -0.168 ± 0.18. Regarding “DnaJ homolog subfamily B member 1 Q27I, P25685”, the abundance fitness was -0.057 ± 0.12. In the case of “DnaJ homolog subfamily B member 1 Q27K, P25685” it was -0.021 ± 0.17; in that of “DnaJ homolog subfamily B member 1 Q27L, P25685”, -0.121 ± 0.094. In the case of “DnaJ homolog subfamily B member 1 Q27M, P25685” it was -0.054 ± 0.14. In the case of “DnaJ homolog subfamily B member 1 Q27N, P25685” it was -0.14 ± 0.12; in that of “DnaJ homolog subfamily B member 1 Q27R, P25685”, -0.215 ± 0.066; in that of “DnaJ homolog subfamily B member 1 Q27T, P25685”, -0.266 ± 0.12. As to “DnaJ homolog subfamily B member 1 Q27W, P25685”, the abundance fitness was -0.064 ± 0.098. “DnaJ homolog subfamily B member 1 Q27Y, P25685” returned an abundance fitness of -0.056 ± 0.28. Regarding “DnaJ homolog subfamily B member 1 R13A, P25685”, the abundance fitness was -0.148 ± 0.081.

In turn, “DnaJ homolog subfamily B member 1 R13C, P25685” yielded an abundance fitness of -0.262 ± 0.12.

Substance “DnaJ homolog subfamily B member 1 R13D, P25685” yielded an abundance fitness of -0.117 ± 0.22. In the case of “DnaJ homolog subfamily B member 1 R13E, P25685” it was -0.142 ± 0.089; in that of “DnaJ homolog subfamily B member 1 R13F, P25685”, -0.15 ± 0.1; in that of “DnaJ homolog subfamily B member 1 R13G, P25685”, -0.305 ± 0.064. “DnaJ homolog subfamily B member 1 R13H, P25685” showed an abundance fitness of -0.191 ± 0.16. In the case of “DnaJ homolog subfamily B member 1 R13I, P25685” it was -0.221 ± 0.15. In the case of “DnaJ homolog subfamily B member 1 R13K, P25685” it was -0.097 ± 0.089. The substance “DnaJ homolog subfamily B member 1 R13L, P25685” returned an abundance fitness of -0.191 ± 0.066. In the case of “DnaJ homolog subfamily B member 1 R13M, P25685” it was -0.219 ± 0.092; in that of “DnaJ homolog subfamily B member 1 R13N, P25685”, -0.091 ± 0.11; in that of “DnaJ homolog subfamily B member 1 R13P, P25685”, -0.177 ± 0.088.

Turning to “DnaJ homolog subfamily B member 1 R13Q, P25685”, the abundance fitness came out at 0.048 ± 0.2. In the case of “DnaJ homolog subfamily B member 1 R13S, P25685” it was -0.182 ± 0.056; in that of “DnaJ homolog subfamily B member 1 R13T, P25685”, -0.138 ± 0.089. “DnaJ homolog subfamily B member 1 R13V, P25685” registered an abundance fitness of -0.157 ± 0.065. To “DnaJ homolog subfamily B member 1 R13W, P25685” belongs -0.434 ± 0.08; to “DnaJ homolog subfamily B member 1 R13Y, P25685”, -0.279 ± 0.091.
